From patent US20120021995A1 (published 2012)

T1: recombinant human TRAIL R1 (DR4)/Fc chimera (human, UniProt O00220 24-239)
T1 construct: bought (R&D Systems); not shown: Fc of the bought chimera (R&D Systems)
T1 sequence: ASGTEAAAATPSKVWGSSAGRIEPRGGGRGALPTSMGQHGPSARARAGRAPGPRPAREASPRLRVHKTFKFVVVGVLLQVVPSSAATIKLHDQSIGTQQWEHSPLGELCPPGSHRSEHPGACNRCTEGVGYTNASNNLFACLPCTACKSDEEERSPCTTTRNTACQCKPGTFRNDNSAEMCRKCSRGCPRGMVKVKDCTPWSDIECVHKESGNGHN


Target: T1, recombinant human TRAIL R1 (DR4)/Fc …
Experiment: phage ELISA on DR4/Fc
Procedure: The remaining overnight culture was used to make a master stock plate by adding 100 μL of 50% glycerol to each well and storing at −80° C. The replica culture plate was grown at 37° C. with shaking at 250 rpm for approximately 2 hrs until the OD₆₀₀ was 0.5-0.7. The wells were then infected with K07 helper phage to 5×10⁹ pfu/mL mixed and incubated at 37° C. for 30 minutes without shaking, then incubated an addition 30 minutes at 37° C. with shaking at 250 rpm. The cultures were then spun down at 2500 rpm and 4° C. for 20 minutes. The supernatants were removed from the wells and the bacterial cell pellets were re-suspended in 500 μL of 2xYT containing 50 μg/mL carbenicillin and 50 μg/mL kanamycin. An air-permeable membrane was placed on the culture block and cells were grown overnight at room temperature with shaking at 250 rpm.
On day 3, cultures were spun down and supernatants containing the phage were blocked with 3% milk/PBS for 1 hr at room temperature. An initial Phage ELISA was performed using 75-100 ng of antigen bound per well. Non-specific binding was measured using 75-100 ng of human IgG1 Fc per well. DR4/Fc antigen (R&D Systems)-coated wells and IgG Fc coated wells were prepared fresh the night before by binding the above amount of antigen diluted in 100 μL of PBS per well. Antigen plates were incubated overnight at 4° C. then for 1 hour at 37° C., washed twice with PBS/0.05% Tween 20 and twice with PBS, and then blocked with 3% milk/PBS for 1 hr at 37° C. prior to the ELISA. Blocked phage were bound to blocked antigen-bound plates for 1 hr then washed twice with 0.05% Tween 20/PBS and then twice more with PBS. A HRP-conjugated anti-M13 secondary antibody diluted in 3% milk/PBS was then applied, with binding for 1 hr and washing as described above. The ELISA signal was developed using 90 μL TMB substrate mix and then stopped with 90 μL 0.2 M sulfuric acid, then ELISA plates were read at 450 nm. […] Secondary ELISA screens were performed similarly to the protocol detailed above.

| Binder | binding result |
| --- | --- |
| 064-40.1C7 (designed binder, on phage) ALQTVCLKGTKVHMKCFLAFTQTKTFHEASEDCISRGGTLSTPQTGSENDALYEYLRQSVGNEAEIWLGLNGWLEGVGWVDMTGARIAYKNWETEITAQPDGGGGVRWENCAVLSGAANGKWFDKRCRDQLPYICQFGIV | binds |
| 014-40.3A3 (designed binder, on phage) ALQTVCLKGTKVHMKCFLAFTQTKTFHEASEDCISRGGTLSTPQTGSENDALYEYLRQSVGNEAEIWLGLNGFMVGRGWVDMTGARIAYKNWETEITAQPDGGSMWPWENCAVLSGAANGKWFDKRCRDQLPYICQFGIV | binds |
| 014-40.3B2 (designed binder, on phage) ALQTVCLKGTKVHMKCFLAFTQTKTFHEASEDCISRGGTLSTPQTGSENDALYEYLRQSVGNEAEIWLGLNGYIEGTGWVDMTGARIAYKNWETEITAQPDGGSNWAWENCAVLSGAANGKWFDKRCRDQLPYICQFGIV | binds |
| 014-40.3B3 (designed binder, on phage) ALQTVCLKGTKVHMKCFLAFTQTKTFHEASEDCISRGGTLSTPQTGSENDALYEYLRQSVGNEAEIWLGLNGYMSGYGWVDMTGARIAYKNWETEITAQPDGGMMARWENCAVLSGAANGKWFDKRCRDQLPYICQFGIV | binds |
| 014-40.3E9 (designed binder, on phage) ALQTVCLKGTKVHMKCFLAFTQTKTFHEASEDCISRGGTLSTPQTGSENDALYEYLRQSVGNEAEIWLGLNPFRVPQWWVDMTGARIAYKNWETEITAQPDGGYGPVQENCAVLSGAANGKWFDKRCRDQLPYICQFGIV | binds |
| 014-40.3E11 (designed binder, on phage) ALQTVCLKGTKVHMKCFLAFTQTKTFHEASEDCISRGGTLSTPQTGSENDALYEYLRQSVGNEAEIWLGLNGYLAGYGWVDMTGARIAYKNWETEITAQPDGGPSIWRENCAVLSGAANGKWFDKRCRDQLPYICQFGIV | binds |
| 014-40.3H2 (designed binder, on phage) ALQTVCLKGTKVHMKCFLAFTQTKTFHEASEDCISRGGTLSTPQTGSENDALYEYLRQSVGNEAEIWLGLNMVTRPPYWVDMTGARIAYKNWETEITAQPDGGWVMSFENCAVLSGAANGKWFDKRCRDQLPYICQFGIV | binds |
| 014-42.3C7 (designed binder, on phage) ALQTVCLKGTKVHMKCFLAFTQTKTFHEASEDCISRGGTLSTPQTGSENDALYEYLRQSVGNEAEIWLGLNGWLEGYGWVDMTGARIAYKNWETEITAQPDGGTWWEWENCAVLSGAANGKWFDKRCRDQLPYICQFGIV | binds |
| 014-42.3D9 (designed binder, on phage) ALQTVCLKGTKVHMKCFLAFTQTKTFHEASEDCISRGGTLSTPQTGSENDALYEYLRQSVGNEAEIWLGLNGYLAGVGWVDMTGARIAYKNWETEITAQPDGGRGFRWENCAVLSGAANGKWFDKRCRDQLPYICQFGIV | binds |
| 014-42.3G8 (designed binder, on phage) ALQTVCLKGTKVHMKCFLAFTQTKTFHEASEDCISRGGTLSTPQTGSENDALYEYLRQSVGNEAEIWLGLNGWLQGVGWVDMTGARIAYKNWETEITAQPDGGRGWPWENCAVLSGAANGKWFDKRCRDQLPYICQFGIV | binds |
| 029-61.1A5 (designed binder, on phage) ALQTVCLKGTKVHMKCFLAFTQTKTFHEASEDCISRGGTLSTPQTGSENDALYEYLRQSVGNEAEIWLGLNGWLMGTGWVDMTGARIAYKNWETEITAQPDGGWWNRWENCAVLSGAANGKWFDKRCRDQLPYICQFGIV | binds |
| 029-62.2B3 (designed binder, on phage) ALQTVCLKGTKVHMKCFLAFTQTKTFHEASEDCISRGGTLSTPQTGSENDALYEYLRQSVGNEAEIWLGLNRYHVQALWVDMTGARIAYKNWETEITAQPDGGRVRPRENCAVLSGAANGKWFDKRCRDQLPYICQFGIV | binds |
| 029-62.2C5 (designed binder, on phage) ALQTVCLKGTKVHMKCFLAFTQTKTFHEASEDCISRGGTLSTPQTGSENDALYEYLRQSVGNEAEIWLGLNVRRMGFHWVDMTGARIAYKNWETEITAQPDGGRVAVGENCAVLSGAANGKWFDKRCRDQLPYICQFGIV | binds |
| 029-62.4F5 (designed binder, on phage) ALQTVCLKGTKVHMKCFLAFTQTKTFHEASEDCISRGGTLSTPQTGSENDALYEYLRQSVGNEAEIWLGLNIQCSPPLWVDMTGARIAYKNWETEITAQPDGGAVQQQENCAVLSGAANGKWFDKRCRDQLPYICQFGIV | binds |
| 029-62.7D10 (designed binder, on phage) ALQTVCLKGTKVHMKCFLAFTQTKTFHEASEDCISRGGTLSTPQTGSENDALYEYLRQSVGNEAEIWLGLNGLARQQGWVDMTGARIAYKNWETEITAQPDGGKGRPRENCAVLSGAANGKWFDKRCRDQLPYICQFGIV | binds |
| 064-21.1A5 (designed binder, on phage) ALQTVCLKGTKVHMKCFLAFTQTKTFHEASEDCISRGGTLSTPQTGSENDALYEYLRQSVGNEAEIWLGLNGFLQGNGWVDMTGARIAYKNWETEITAQPDGGMWDRWENCAVLSGAANGKWFDKRCRDQLPYICQFGIV | binds |
| 064-36.1B7 (designed binder, on phage) ALQTVCLKGTKVHMKCFLAFTQTKTFHEASEDCISRGGTLSTPQTGSENDALYEYLRQSVGNEAEIWLGLNGWMAGVGWVDMTGARIAYKNWETEITAQPDGGRRLPWENCAVLSGAANGKWFDKRCRDQLPYICQFGIV | binds |
| 064-36.1D7 (designed binder, on phage) ALQTVCLKGTKVHMKCFLAFTQTKTFHEASEDCISRGGTLSTPQTGSENDALYEYLRQSVGNEAEIWLGLNVRHWLQLWVDMTGARIAYKNWETEITAQPDGGGWWKGENCAVLSGAANGKWFDKRCRDQLPYICQFGIV | binds |
| 064-36.1E1 (designed binder, on phage) ALQTVCLKGTKVHMKCFLAFTQTKTFHEASEDCISRGGTLSTPQTGSENDALYEYLRQSVGNEAEIWLGLNIWPLRFRWVDMTGARIAYKNWETEITAQPDGGFVTRKENCAVLSGAANGKWFDKRCRDQLPYICQFGIV | binds |
| 064-36.1E4 (designed binder, on phage) ALQTVCLKGTKVHMKCFLAFTQTKTFHEASEDCISRGGTLSTPQTGSENDALYEYLRQSVGNEAEIWLGLNVLRLAWSWVDMTGARIAYKNWETEITAQPDGGKRNGCENCAVLSGAANGKWFDKRCRDQLPYICQFGIV | binds |
| 064-36.1E10 (designed binder, on phage) ALQTVCLKGTKVHMKCFLAFTQTKTFHEASEDCISRGGTLSTPQTGSENDALYEYLRQSVGNEAEIWLGLNGFLAGVGWVDMTGARIAYKNWETEITAQPDGGWWTRWENCAVLSGAANGKWFDKRCRDQLPYICQFGIV | binds |
| 064-36.1E12 (designed binder, on phage) ALQTVCLKGTKVHMKCFLAFTQTKTFHEASEDCISRGGTLSTPQTGSENDALYEYLRQSVGNEAEIWLGLNGCTQGQGWVDMTGARIAYKNWETEITAQPDGGKKWKWENCAVLSGAANGKWFDKRCRDQLPYICQFGIV | binds |
| 064-36.1G4 (designed binder, on phage) ALQTVCLKGTKVHMKCFLAFTQTKTFHEASEDCISRGGTLSTPQTGSENDALYEYLRQSVGNEAEIWLGLNRCLQGVGWVDMTGARIAYKNWETEITAQPDGGRGWPWENCAVLSGAANGKWFDKRCRDQLPYICQFGIV | binds |
| 064-36.1G10 (designed binder, on phage) ALQTVCLKGTKVHMKCFLAFTQTKTFHEASEDCISRGGTLSTPQTGSENDALYEYLRQSVGNEAEIWLGLNGYLQGSGWVDMTGARIAYKNWETEITAQPDGGWKTRWENCAVLSGAANGKWFDKRCRDQLPYICQFGIV | binds |
| 064-40.1E11 (designed binder, on phage) ALQTVCLKGTKVHMKCFLAFTQTKTFHEASEDCISRGGTLSTPQTGSENDALYEYLRQSVGNEAEIWLGLNWLSLFSPWVDMTGARIAYKNWETEITAQPDGGRGVRGENCAVLSGAANGKWFDKRCRDQLPYICQFGIV | binds |
